Substitutions are numbered along the chain they refer to.
B1: LD78 Ile19>Ala (Mutant 80) (ligand)
chain: SLAADTPTACCFSYTSRQAPQNFIADYFETSSQCSKPGVIFLTKRSRQVCADPSEEWVQKYVSDLELSA
B2: LD78 Val39>Ala (Mutant 91) (ligand)
chain: B1 chain with A19I, V39A
B3: LD78 Lys44>Glu Arg45>Gln (Mutant 2) (ligand)
chain: B1 chain with A19I, K44E, R45Q
B4: LD78 Arg17>Ser Gln18>Glu (Mutant 30) (ligand)
chain: B1 chain with R17S, Q18E, A19I
B5: LD78 Lys44>Ser (Mutant 42) (ligand)
chain: B1 chain with A19I, K44S
B6: human LD78 (wild type, recombinant, expressed from a synthetic gene in yeast) (ligand)
chain: B1 chain with A19I
B7: LD78 Ser13>Ala (Mutant 62) (ligand)
chain: B1 chain with S13A, A19I
B8: LD78 Asp26>Ala (Mutant 10) (ligand)
chain: B1 chain with A19I, D26A
B9: LD78 Glu29>Arg (Mutant 28) (ligand)
chain: B1 chain with A19I, E29R
B10: LD78 Arg17>Ser (Mutant 5) (ligand)
chain: B1 chain with R17S, A19I
B11: LD78 Ser35>Ala (Mutant 68) (ligand)
chain: B1 chain with A19I, S35A
B12: LD78 Glu66>Ser (Mutant 52) (ligand)
chain: B1 chain with A19I, E66S
B13: LD78 Phe28>Glu Arg47>Glu (Mutant 26) (ligand)
chain: B1 chain with A19I, F28E, R47E
B14: LD78 Asp5>Ser (Mutant 37) (ligand)
chain: B1 chain with D5S, A19I
B15: LD78 Phe12>Gln (Mutant 11) (ligand)
chain: B1 chain with F12Q, A19I
B16: LD78 Ile24>Ala (Mutant 38) (ligand)
chain: B1 chain with A19I, I24A
B17: LD78 Tyr27>Ala (Mutant 66) (ligand)
chain: B1 chain with A19I, Y27A
B18: LD78 Ser1>Ala (Mutant 54) (ligand)
chain: B1 chain with S1A, A19I
B19: LD78 Leu-Ser-Ala-Ser1>Pro Gly38>Ser Ser46>Gly (Mutant 35) (ligand)
chain: LSAPLAADTPTACCFSYTSRQIPQNFIADYFETSSQCSKPSVIFLTKRGRQVCADPSEEWVQKYVSDLELSA

Target: the molecule itself
Test: self-association; sedimentation equilibrium AUC, 150 mM PBS pH7.4

Binder | binding result
B1 | no binding (tested: 0.5 mg/ml)
B2 | no binding (tested: 0.5 mg/ml)

What follows are binders tested against LD78 receptor on the murine stem cell line FDCP cell mix (A4 cells) (murine) (assay: displacement of 125I-LD78 from FDCP-mix A4 cells; % of wild-type activity based on IC50).

Binder | Receptor Binding % WT
B3 | 5 % WT
B4 | 4.2 % WT
B5 | 18 % WT
B6 | 100 % WT
B7 | 66 % WT
B8 | 77.4 % WT
B9 | 7.7 % WT
B10 | 25 % WT
B11 | 125 % WT
B12 | 162 % WT
B13 | 1 % WT
B14 | 45 % WT
B15 | 34 % WT
B16 | 50 % WT
B17 | 47 % WT
B18 | 145 % WT
B19 | 3 % WT

Reference: patent US6057123, “Stem cell inhibiting proteins” (British Biotech Pharmaceuticals Limited, dated 2000)
